Data as given in patent EP4678655A1.
Where “and” joins values, the source holds several entries; their conditions need not be identical. Equal entries are not always repeated.

What was measured:
[1] = target: T1, hTregL1-his chymotryptic peptide 585-598 (human); assay: affinity-MS: chymotryptic antigen peptides eluted from antibody-CNBr column, LC-MS
T1 sequence (peptide): ECAATGHPNPQIAW

[2] = target: T2, hTregL1-his chymotryptic peptide 327-344 (human); assay: as above
T2 sequence (peptide): DLDHNEISGTIEDTSGAF

[3] = target: T3, hTregL1-his chymotryptic peptide 430-440 (human); assay: as above
T3 sequence (peptide): VTATCAHPESL

[4] = target: T4, hTregL1-his chymotryptic peptide 447-471 (human); assay: as above
T4 sequence (peptide): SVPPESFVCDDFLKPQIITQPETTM

[5] = target: T5, hTregL1-his chymotryptic peptide 728-744 (human); assay: as above
T5 sequence (peptide): TCEMSNTLGTERAHSQL

[6] = target: T6, hTregL1-his chymotryptic peptide 536-553 (human); assay: as above
T6 sequence (peptide): GHEGRYQCVITNHFGSTY

[7] = target: T7, hTregL1-his chymotryptic peptide 529-535 (human); assay: as above
T7 sequence (peptide): HLRQVTF

[8] = target: T8, hTregL1-his chymotryptic peptide 624-636 (human); assay: as above
T8 sequence (peptide): FITDVKIDDAGVY

[9] = target: T9, hTregL1-his chymotryptic peptide 637-653 (human); assay: as above
T9 sequence (peptide, N-glycan at 650(N)): SCTAQNSAGSISANATL

[10] = target: T10, hTregL1-his chymotryptic peptide 113-134 (human); assay: as above
T10 sequence (peptide, N-glycan at 116(N)): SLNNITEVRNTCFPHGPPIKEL

[11] = target: T11, hTregL1-his chymotryptic peptide 270-280 (human); assay: as above
T11 sequence (peptide): SFCQKLHELVL

[12] = target: T12, hTregL1-his chymotryptic peptide 402-416 (human); assay: as above
T12 sequence (peptide): HISSDSFLCDCQLKW

[13] = target: T13, hTregL1-his chymotryptic peptide 430-446 (human); assay: as above
T13 sequence (peptide): VTATCAHPESLKGQSIF

[14] = target: T14, hTregL1-his chymotryptic peptide 427-440 (human); assay: as above
T14 sequence (peptide): QAFVTATCAHPESL

[15] = target: T15, hTregL1-his chymotryptic peptide 472-492 (human); assay: as above
T15 sequence (peptide): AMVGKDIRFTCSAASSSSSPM

[16] = target: T16, hTregL1-his tryptic peptide 498-531 (human); assay: affinity-MS: tryptic antigen peptides eluted from antibody-CNBr column, LC-MS
T16 sequence (peptide): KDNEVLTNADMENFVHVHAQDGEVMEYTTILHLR

[17] = target: T17, hTregL1-his tryptic peptide 499-531 (human); assay: as above
T17 sequence (peptide): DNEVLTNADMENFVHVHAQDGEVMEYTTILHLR

[18] = target: T18, hTregL1-his tryptic peptide 499-529 (human); assay: as above
T18 sequence (peptide): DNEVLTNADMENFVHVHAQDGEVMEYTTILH

B1: GTC310-01-hlgG1 (antibody, human IgG1, kappa, V domains shown)
VH: EVQLLESGGGLVQPGGSLRLSCAASGFTFSNYAMSWVRQAPGKGLEWVSVISHGGGSTYYADSVKGRFTISRDNSKNTLYLQMNSLRAEDTAVYYCARVISNCHLGVCYYSNGMDVWGQGTLVTVSS
VL: QLVLTQPPSVSAAPGQRVSISCSGSSSNIGDNYVSWYQQVPGSAPKLLIYDNNKRPSGIPDRFSASKSGTSATLGITGLQTGDEADYYCATWDGSLSAGRVFGGGTKLTVLR
MS Area [1]: 766000 and 374000 | MS Area [2]: 283000 and 298000 | MS Area [3]: 1.59e+07 and 1.18e+07 | MS Area [4]: 1.62e+06 and 1.32e+06 | MS Area [5]: 335000 and 736000 | MS Area [6]: 497000 and 295000 | MS Area [7]: 378000 and 312000 | MS Area [8]: 473000 and 399000 | MS Area [9]: 334000 and 207000 | MS Area [10]: 556000 and 544000 | MS Area [11]: 459000 and 335000 | MS Area [12]: 1.67e+07 and 7.24e+06 | MS Area [13]: 1e+06 and 705000 | MS Area [14]: 1.05e+06 and 554000 | MS Area [15]: 407000 and 325000 | MS Area [16]: 7.66e+06 and 4.64e+06 and 4.1e+06 | MS Area [17]: 1.9e+07 (2×) and 6.9e+06 | MS Area [18]: 1.21e+06 and 726000 and 442000
